The text below walks through data of patent US20140363844.

For data set [1], the target named is T1, Presegetalin A1[14,32]A19V.
T1 chain: GVPVWVFQAKDVENASAPV

Data set [2] deals with T2, Presegetalin A1[14,32]G14A.
T2 chain: AVPVWAFQAKDVENASAPV

The target in another data set is T3, Presegetalin A1[14,32].
T3 chain: GVPVWAFQAKDVENASAPV

Data set [3] deals with T4, Presegetalin A1[14,32]P16A.
T4 chain: GVAVWAFQAKDVENASAPV

Data set [4] concerns the target T5, Presegetalin A1[14,32]V15A.
T5 chain: GAPVWAFQAKDVENASAPV

Data set [5] concerns the target T6, Presegetalin A1[14,32]V17A.
T6 chain: GVPAWAFQAKDVENASAPV

The target in data set [6] is T7, Presegetalin A1[14,32]W18A.
T7 chain: GVPVAAFQAKDVENASAPV

In data set [7] the target is T8, Presegetalin A1[14,32] P16p W18A.
T8 chain: GVPVAAFQAKDVENASAPV

In data set [8] the target is T9, Presegetalin A1[14,32] P16p W18a.
T9 chain: GVPVAAFQAKDVENASAPV

B1: Dianthus superbus PCY1-c250 (recombinant) (protein)
chain: MASCGFTKPLHYPTARRDETVVDDYFGLKVADPYRWLEDRDSEETKKFVEDQVKFTDSVLEECELIGKVKQKIIDYVSFPRWSVPLRRANKYFHFYNSGLQSQNVYRMQDGLDGKPEVICDPNLREDGRTGLSVYSVSEDAKYFAFGIAEGFTEWLTIRVMRTEDRSMLPDCLTEVKFTTVHWTHDNKGFFYCAYPPLEEGQDHMVHASISQEARYHYLGTDQSEDILCWKDPENPTHHFRSYFTDDGKYFVLYILEGCDKKNKVYCLDLTKLPNGPESLRGREGSAPFIKLVDSFDASYTVIANDDSVFTLLTDKDAKRCKLVRVDLNNPSVWTDVIPESKDLLESAHAVNGNQLLLRYLRDVKHVLELRDLESGSLLHSIPIDIGAVDGINARRGDSIVFFRFTSILTPGIIYQCDLKNDPTQLNIFRESLVPGFDRSEFEVKQVFVPGKDGTKIPAFIAARKGISLDGSHPCEMHGYGGYGHNMMPTFSASRLVFLKHLGGVFCLANIRGGGEYGVDWHKAGARENKQTSFDDFISSAEFLVSSGYSAPKKICIEGGSNGGLLIAVCITQRPDLFGCAEPNCGPMDMLRFHKFTLGYLWTDEYGNPDNEEEFNWLIKYSPLHNVRRPWEQPGHEQTQYPATMIITADHDDRVVPMHSYKMIATMQHVLCTSLENSPQKYPIICRIQRKASHYGRSTMVQIAEVADRYGFMAKALNATWTD
For the protein B1, the “activity on alanine scan mutant (LC/MS)” value in [1], in [3], in data set [4] and in [5] was “D. superbus PCY1-c250 activity was comparable to that of S. vaccaria PCY1” in each case. In addition, the “cyclic peptide product (LC/MS)” value in data set [2] was “there was no detectable cyclic peptide made from No. 7 by D. superbus PCY1-c250”; in [6], “D. superbus PCY1-c250 appeared to produce relatively more cyclic peptide than did S. vaccaria PCY1 from No. 11”. Moreover, the “production of segetalin A (LC/MS)” value with Presegetalin A1[14,32] was “show strong enzymatic activity ... similar to that of S. vaccaria PCY1”.

B2: Silene vulgaris PCY1-c150 (recombinant) (protein)
chain: MASSAFSKPLNYPPVRRDETVVNDYFGVKVADPYRWLEDQEGEETIEFVDNQVKLADSVLEECELRDKIKQKITDLVNFPRCGVPFKRADKYFHFYNSGLQAQNVLHMQDDLDGKPEVLYDPNLREGGRSGLHQYAVSEDAKYLAFGINSGFSEWLTIKVMRIEDRSVLPDSLSWVKFSGIHWTHDSKGFFFSPYPPATEGLEVGMKTNSSFNQELRYHFLGTDESEDVLCWRDPENPTHHLKSDLTADGKYLLLYISAGCDATNKVYYMDLTTLPNGLEGLRGGKDLLPFKRLIDEFDATYTAIANDGSVFTFLTNKDAPRNKIVRVDLNNPDIWTEVIPESKKDVLESAHAVNGNQLLVRYLSDVKHILEVRDLESGSLLHRLPVDLGVIDGITARPQDSVVFFKFTSFLTPTIIYQCDLKEDSPQLKIFRESVVPEFDRSEFEVKQVFVSAKDGTKIPMFIVARKGISLDGSHPCELHGYGGFSISIKPFFSASRIVILKHLDAVFCVANIRGGGEYGEEWHQAGWREKKQIVFDDFISSAEYLVSSGYTQPQKLSIEGGSNGGLLVAACINQRPDLFGCAQANCGVMDMLRFHKFTLGYLWTSDYGCSEKEEDFNWLIKYSPIHNVRRPWEHSKNPQLQYPAVMILTADHDDRVVPLHSFKLLATLQHVLCTSLEDSPQKNPIIARIERKASHCGRATMKQIDEAADRYAFMAKALRATWTD
In the case of B2, in the data set with Presegetalin A1[14,32], the “production of segetalin A (LC/MS)” value was “has the same enzymatic activity as that of S. vaccaria PCY1, (FIG. 7d) albeit weaker than that of S. vaccaria PCY1 for production of segetalin A”.

B3: Dianthus superbus PCY1-c1141 (recombinant) (protein)
chain: MAVSCGFTKTLHYPPVRRDETVVDDYFGLKIADPYRWLEDLNSEETKKFVDDQVKFTESVLEECELIGKVKQKIIDYVSFPRWSVPLRRANKYFHFYNSGLQSQNVYRMQDGLDGKPEVVYDPNLREGGRTGLTLYSVSEDANYFAFGIAEGFTEWLTIRVMRIEDRSMLPDCITGVKHSGIHWTHDNKGFFYCPYPPLEEGQDLMIHPSMSQEVRYHFIGTDQSEDILCWKDTVNPTHHLKSYFTDDGKYFVLYILEGCNNMNKVYCLDLTELPNGPESLRGREGSAPFIKLVDSFDALYTAIANDGSVFTFLTDKDATRRKLVRVDLNNPSVWTDVLPESKDLLESAHAVNGNQLLIRYLSDVKHILELRDLESGSLLHRIPIDIGAVDGTINARRGDSVVFFKFTSILTPSIIYQCDLKNDPPQLKIFRESVVPGFDRSEFEVKQLFAPSKDGTMIPTFVAARKGISLDGSHPCEMHGYGAYGQCMMPTFSASRLVFLKHLGGVFCLANIRGGGEYGVEWHKAGARENKQNSYDDFIASAEFLVSSGYTAPKKICIEGGSNGGLLIAVCITQRPDLFGCAEPNCGPMDMIRFHHFTQGYVVMSEYGSPDKEEEFNWLIKYSPLHNVRRPWEQPGHEQTQYPATMIITADHDDRVVPFHSYKMIATMQHVLCTSLENSPQKFPIICRIQRNASHYGRATMVQIAEVADRYGFMAKALNATWTD
On to B3, for which, in data set [7], the “cyclic peptide product (LC/MS, MS/MS)” value is “S. vaccaria PCY1 and D. superbus PCY1-c1141 made cyclic peptides from both No. 31 and No. 32”. In data set [8], the “cyclic peptide product (LC/MS, MS/MS)” value is “S. vaccaria PCY1 and D. superbus PCY1-c1141 made cyclic peptides from both No. 31 and No. 32”; the “cyclization (LC/MS)” value was “also demonstrated the ability to cyclize alternating D- and L-amino acid polypeptide substrates (FIG. 12a) in a similar manner to S. vaccaria PCY1”; the “relative activity (LC/MS)” value is “D. superbus PCY1-c1141 was relatively more active on No. 32 than was S. vaccaria PCY1”. The “production of segetalin A (LC/MS)” value with Presegetalin A1[14,32] is reported as “show strong enzymatic activity ... similar to that of S. vaccaria PCY1”.
